Test results: PMC4947154

B1: human transcobalamin (holo-TC, cyanocobalamin-bound) (natural protein)
chain: EMCEIPEMDSHLVEKLGQHLLPWMDRLSLEHLNPSIYVGLRLSSLQAGTKEDLYLHSLKLGYQQCLLGSAFSEDDGDCQGKPSMGQLALYLLALRANCEFVRGHKGDRLVSQLKWFLEDEKRAIGHDHKGHPHTSYYQYGLGILALCLHQKRVHDSVVDKLLYAVEPFHQGHHSVDTAAMAGLAFTCLKRSNFNPGRRQRITMAIRTVQEEILKAQTPEGHFGNVYSTPLALQFLMTSPMRGAELGTACLKARVALLASLQDGAFQNALMISQLLPVLNHKTYIDLIFPDCLAPRVMLEPAAETIPQTQEIISVTLQVLSLLPPYRQSISVLAGSTVEDVLKKAHELGGFTYETQASLSGPYLTSVMGKAAGEREFWQLLRDPNTPLLQGIADYRPKDGETIELRLVSW
B2: TCα (α domain of human transcobalamin, residues 1-290) (domain or fragment)
chain: EMCEIPEMDSHLVEKLGQHLLPWMDRLSLEHLNPSIYVGLRLSSLQAGTKEDLYLHSLKLGYQQCLLGSAFSEDDGDCQGKPSMGQLALYLLALRANCEFVRGHKGDRLVSQLKWFLEDEKRAIGHDHKGHPHTSYYQYGLGILALCLHQKRVHDSVVDKLLYAVEPFHQGHHSVDTAAMAGLAFTCLKRSNFNPGRRQRITMAIRTVQEEILKAQTPEGHFGNVYSTPLALQFLMTSPMRGAELGTACLKARVALLASLQDGAFQNALMISQLLPVLNHKTYIDLIFPD

Tests used:
[1] = target: CD320 extracellular, TC-binding part (MBP cleaved), as used for biochemical analysis of the complex (human) (UniProt Q9NPF0); assay: cross-linking; purified complex at 10 mg/ml cross-linked with glutaraldehyde, 1 h RT, then high-mass MALDI-TOF mass spectrometry
[2] = target: MBP-tagged, biotinylated CD320 (CD320AVI) (human) (UniProt Q9NPF0); assay: ELISA; solid-phase binding assay as a2, TC diluted in buffer with 100 mM Tris-HCl pH 7.5, 0.5 mM CaCl2, 150 mM NaCl; n=5
[3] = target: MBP-tagged, biotinylated CD320 (CD320AVI) (human) (UniProt Q9NPF0); assay: ELISA; solid-phase binding assay as a2, TC diluted in buffer with 100 mM sodium acetate pH 4.8, 0.5 mM CaCl2, 150 mM NaCl; n=5
[4] = target: MBP-tagged, biotinylated CD320ΔE88 (Avi Tag) (human) (UniProt Q9NPF0); assay: ELISA; solid-phase binding assay: biotinylated MBP-tagged receptor on Neutravidin plates, tag-less TC serially diluted in 20 mM Tris pH 7.5, 0.5 mM CaCl2, 150 mM NaCl, 0.05% Tween-20, 1 h RT; TC detected with antibody A-5; single-site fit, n=5
[5] = target: MBP-tagged, biotinylated CD320 (CD320AVI) (human) (UniProt Q9NPF0); assay: as above
[6] = target: CD320(Gly4Ser)4 (flexible linker mutant: EGF-like domain replaced by (Gly4Ser)4) (human) (UniProt Q9NPF0); assay: native MS; native ESI-MS of the purified complex and of its individually purified SEC peaks
[7] = target: CD320 extracellular, TC-binding part (MBP cleaved), as used for biochemical analysis of the complex (human) (UniProt Q9NPF0); assay: co-expression and co-purification; TC construct and His9-MBP-CD320 construct co-expressed and secreted from Sf21 cells, complex captured from the medium on Ni-NTA through the receptor's tag

CD320(Gly4Ser)4 (flexible linker mutant: EGF-like domain replaced by (Gly4Ser)4) (human), sequence (Q9NPF0 other isoform, or with tags, fused parts or gaps, change not shown): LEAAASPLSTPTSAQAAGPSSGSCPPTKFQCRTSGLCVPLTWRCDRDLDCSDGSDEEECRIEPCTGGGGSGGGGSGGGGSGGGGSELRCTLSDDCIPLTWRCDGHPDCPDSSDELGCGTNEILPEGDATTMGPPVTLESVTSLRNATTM

Binder | stoichiometry N [1] | Kd [2] | Kd [3] | Kd [4] | Kd [5] | stoichiometry N [6] | stoichiometry N [7]
B1 | 1 TC:CD320 | 1 nM | 58 nM | 1.5 nM | 1.5 nM | 1 TC:CD320 | –
B2 | – | – | – | – | – | – | 1 TCα:CD320
